Experimental data from patent publication CN117836322A.

Target: SARS-CoV-2 RBD结构域 (wild type) (SARS-CoV-2)
Assay: SPR (Biacore), antibody coupled to CM5 chip, viral protein as analyte, 25°C
Conditions: remark: other sources report otherwise

B1: Cv2.3194 IgG1 (antibody)
heavy: EVQLVESGGGLIQPGGSLRLSCAASGITVTSNYMSWVRQAPGKGLEWVSVIYPGGSTFYADSVKGRFTISRDNSKNTLYLQMNSLRAEDTAVYYCARDLVVYGMDVWGQGTTVTVSSASTKGPSVFPLAPSSKSTSGGTAALGCLVKDYFPEPVTVSWNSGALTSGVHTFPAVLQSSGLYSLSSVVTVPSSSLGTQTYICNVNHKPSNTKVDKKVEPKSCDKTHTCPPCPAPELLGGPSVFLFPPKPKDTLMISRTPEVTCVVVDVSHEDPEVKFNWYVDGVEVHNAKTKPREEQYNSTYRVVSVLTVLHQDWLNGKEYKCKVSNKALPAPIEKTISKAKQPREPQVYTLPPSRDELTKNQVSLTCLVKGFYPSDIAVEWESNGQPENNYKTTPPVLDSDGSFFLYSKLTVDKSRWQQGNVFSCSVMHEALHNHYTQKSLSLSPGK
light: EIVLTQSPGTLSLSPGERATLSCRASQSVSSSYLAWYQQKPGQAPRLLIYGASSRATGIPGRFSGSGSGTDFTLTISRLEPEDFAIYYCQQGVTFGGGTKVEIKRTVAAPSVFIFPPSDEQLKSGTASVVCLLNNFYPREAKVQWKVDNALQSGNSQESVTEQDSKDSTYSLSSTLTLSKADYEKHKVYACEVTHQGLSSPVTKSFNRGEC
For B1, the Kd was under 1 µM.

B2: Cv2.3235 IgG1 (antibody)
heavy: EVQLVESGGGLIQPGGSLRLSCAASGFTVSRNYMSWVRQAPGKGLEWVSVIYSGGSTFYADSVKGRFTISRDNSKNTLYLQMNSLRAEDTAVYYCARDGDYYGMDVWGQGTTVTVSSASTKGPSVFPLAPSSKSTSGGTAALGCLVKDYFPEPVTVSWNSGALTSGVHTFPAVLQSSGLYSLSSVVTVPSSSLGTQTYICNVNHKPSNTKVDKKVEPKSCDKTHTCPPCPAPELLGGPSVFLFPPKPKDTLMISRTPEVTCVVVDVSHEDPEVKFNWYVDGVEVHNAKTKPREEQYNSTYRVVSVLTVLHQDWLNGKEYKCKVSNKALPAPIEKTISKAKQPREPQVYTLPPSRDELTKNQVSLTCLVKGFYPSDIAVEWESNGQPENNYKTTPPVLDSDGSFFLYSKLTVDKSRWQQGNVFSCSVMHEALHNHYTQKSLSLSPGK
light: DIQMTQSPSFLSASVGDRVTITCRASQGISSFLAWYQQKPGKAPKLLIYGASTLQSGVTSRFSGSGSGTEFTLTISSLQPEDFATYYCQRLDSYPPITFGQGTRLEIKRTVAAPSVFIFPPSDEQLKSGTASVVCLLNNFYPREAKVQWKVDNALQSGNSQESVTEQDSKDSTYSLSSTLTLSKADYEKHKVYACEVTHQGLSSPVTKSFNRGEC
With B2 the Kd was under 1 µM.

B3: Cv2.5213 IgG1 (antibody)
heavy: EVQLVESGGGLIQPGGSLRLSCAASGFTVSSNYMSWVRQAPGKGLEWVSLIYSGGSTYYADSVKGRFTISRDNSKNTLYLQMNSLRAEDTAVYYCARDLNYYGMDVWGQGATVTVSSASTKGPSVFPLAPSSKSTSGGTAALGCLVKDYFPEPVTVSWNSGALTSGVHTFPAVLQSSGLYSLSSVVTVPSSSLGTQTYICNVNHKPSNTKVDKKVEPKSCDKTHTCPPCPAPELLGGPSVFLFPPKPKDTLMISRTPEVTCVVVDVSHEDPEVKFNWYVDGVEVHNAKTKPREEQYNSTYRVVSVLTVLHQDWLNGKEYKCKVSNKALPAPIEKTISKAKQPREPQVYTLPPSRDELTKNQVSLTCLVKGFYPSDIAVEWESNGQPENNYKTTPPVLDSDGSFFLYSKLTVDKSRWQQGNVFSCSVMHEALHNHYTQKSLSLSPGK
light: not shown
With B3 the Kd was under 1 µM.

B4: Cv2.1353 IgG1 (antibody)
heavy: EVQLVESGGGLVQPGGSLRLSCAASGVTVSSNYMNWVRQAPGKGLEWVSVIYSGGSTFYADSVKGRFIISRDNSKNTLYLQMNSLKTEDTAVYYCARDLGPMGFDIWGQGTMVTVSSASTKGPSVFPLAPSSKSTSGGTAALGCLVKDYFPEPVTVSWNSGALTSGVHTFPAVLQSSGLYSLSSVVTVPSSSLGTQTYICNVNHKPSNTKVDKKVEPKSCDKTHTCPPCPAPELLGGPSVFLFPPKPKDTLMISRTPEVTCVVVDVSHEDPEVKFNWYVDGVEVHNAKTKPREEQYNSTYRVVSVLTVLHQDWLNGKEYKCKVSNKALPAPIEKTISKAKQPREPQVYTLPPSRDELTKNQVSLTCLVKGFYPSDIAVEWESNGQPENNYKTTPPVLDSDGSFFLYSKLTVDKSRWQQGNVFSCSVMHEALHNHYTQKSLSLSPGK
light: DIQMTQSPSFLSASVGDRVTITCRASQGISSYLAWYQQKPGKAPKLLIYAASTLQSGVPSRFSGSGSGTEFTLTISSLQPEDFATYYCQQLNSDPPVTFGPGTKVDIKRTVAAPSVFIFPPSDEQLKSGTASVVCLLNNFYPREAKVQWKVDNALQSGNSQESVTEQDSKDSTYSLSSTLTLSKADYEKHKVYACEVTHQGLSSPVTKSFNRGEC
For B4, the Kd was under 1 µM.
